# Where a chain is given by its changes, count along the chain named. Names and notes keep the numbering of the source. Values joined by “and” are separate entries in the source; they are usually repeats but may differ in a detail not shown here. Equal entries are not always repeated.
# B1: stefin B P79S mutant (of the wt C3S E31-stefin B) (natural protein, human, UniProt P04080 1-98, looked up)
# chain: MMSGAPSATQPATAETQHIADQVRSQLEEKENKKFPVFKAVSFKSQVVAGTNYFIKVHVGDEDFVHLRVFQSLPHENKSLTLSNYQTNKAKHDELTYF
# notes: human stefin B (cystatin B), 98 amino acids, E31 variant, C3S, with P79S
# B2: stefin B P36D mutant (of the wt C3S E31-stefin B) (natural protein, human, UniProt P04080 1-98, looked up)
# chain: B1 chain with P36D, S79P
# notes: human stefin B (cystatin B), 98 amino acids, E31 variant, C3S, with P36D
# B3: stefin B-Y31 P36G mutant (natural protein, human, UniProt P04080 1-98, looked up)
# chain: B1 chain with E31Y, P36G, S79P
# notes: human stefin B (cystatin B), 98 amino acids, variant with Y at site 31, with P36G; Cys 3 changed to Ser 'for all in vitro studies'
# B4: stefin B P74S mutant (of the wt C3S E31-stefin B) (protein)
# chain: B1 chain with P74S, S79P
# B5: stefin B P6L mutant (of the wt C3S E31-stefin B) (natural protein, human, UniProt P04080 1-98, looked up)
# chain: B1 chain with P6L, S79P
# notes: human stefin B (cystatin B), 98 amino acids, E31 variant, C3S, with P6L
# B6: stefin B P11S mutant (of the wt C3S E31-stefin B) (natural protein, human, UniProt P04080 1-98, looked up)
# chain: B1 chain with P11S, S79P
# notes: human stefin B (cystatin B), 98 amino acids, E31 variant, C3S, with P11S
# B7: wild-type like C3S E31-stefin B (human) (natural protein, UniProt P04080 1-98, looked up)
# chain: B1 chain with S79P
# notes: human stefin B (cystatin B), 98 amino acids, E31 variant, Cys 3 changed to Ser; also called wt stefin B; wt
# B8: stefin B-Y31 variant (with Y at site 31) (natural protein, human, UniProt P04080 1-98, looked up)
# chain: B1 chain with E31Y, S79P
# notes: human stefin B (cystatin B), 98 amino acids, variant with Y at site 31; Cys 3 changed to Ser 'for all in vitro studies'
# Key:
# [1] = molecular target: stefin B-Y31 P79S mutant (human) (UniProt P04080); experiment: SEC; Y31 variant and its mutants; conditions not told for this experiment
# P04080 [2] = experiment: as above
# P04080 [3] = experiment: SEC; Superdex 75 FPLC column, 0.5 mL/min, typically 100 uL of 50 uM protein, 10 mM potassium phosphate pH 7.0, 0.15 M NaCl; samples frozen and unfrozen once; percentages estimated from the surface area of the peaks
# [4] = molecular target: the molecule itself; experiment: as above
# P04080 [5] = experiment: SEC; Y31 variant and its mutants; conditions not told for this experiment; remark: listed apart in the source
# [6] = molecular target: the molecule itself; experiment: as above
molecule,measurement,setting,value
stefin B-Y31 P79S mutant (from UniProt P04080 4-98) (natural protein),stoichiometry N,[1],2
stefin B-Y31 P79S mutant,percent dimers (SEC),P04080 [2],100% were dimeric
B1,percent dimers (SEC peak area),P04080 [3],55% dimers
same,percent higher molecular weight species (SEC peak area),P04080 [3],15% of higher molecular weight species
same,percent tetramers (SEC peak area),P04080 [3],around 30% tetramers
same,stoichiometry N,[4],4 and 2
B2,stoichiometry N,[4],2 and 4
B3,percent monomers (SEC),P04080 [5],"70% and 75% of molecules were monomers, respectively and the rest were dimers"
same,stoichiometry N,[6],2
B4,percent oligomers (SEC),P04080 [3],The tendency to form oligomers is high for the P74S mutant of the wt (>50%)
B5,binding result,[4],binds
B6,binding result,[4],binds
B7,percent dimers (SEC peak area),P04080 [3],65% dimers
same,percent higher oligomers (SEC peak area),P04080 [3],10% of higher oligomers
same,percent monomers (SEC peak area),P04080 [3],5% monomers
same,percent tetramers (SEC peak area),P04080 [3],20% tetramers
same,stoichiometry N,[4],2 and 4
B8,percent monomers (SEC),P04080 [5],"70% and 75% of molecules were monomers, respectively and the rest were dimers"
same,stoichiometry N,[6],2

# From PMC5372565, “Proline Residues as Switches in Conformational Changes Leading to Amyloid Fibril Formation” (International Journal of Molecular Sciences, 2017)
